From PMC6922461 (PLoS Biology, 2019)

Columns and labels:
[1] = target: Strep-Tactin-SpyCatcherΔ subunit; test: refolding of mixed subunits, anion exchange chromatography, SDS-PAGE densitometry; subunits from washed inclusion bodies mixed at 3:1, refolded by rapid dilution, tetramers separated on Mono Q; boiled peak samples on reducing SDS-PAGE, bands normalised for molecular weight and converted to a subunit ratio; details: both partners purified
[2] = target: the molecule itself; test: as above

Sequence of Strep-Tactin-SpyCatcherΔ subunit (chain, as listed by the source mutant): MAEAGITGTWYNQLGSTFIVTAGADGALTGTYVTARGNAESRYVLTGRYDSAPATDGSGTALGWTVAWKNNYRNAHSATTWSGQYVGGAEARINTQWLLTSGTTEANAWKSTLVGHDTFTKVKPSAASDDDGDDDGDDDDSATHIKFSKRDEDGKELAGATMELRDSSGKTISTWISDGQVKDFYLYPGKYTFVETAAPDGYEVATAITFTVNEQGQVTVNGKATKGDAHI

B1: dead streptavidin subunit (other)
chain: MAEAGITGTWYAQLGDTFIVTAGADGALTGTYEAAVGNAESRYVLTGRYDSAPATDGSGTALGWTVAWKNNYRNAHSATTWSGQYVGGAEARINTQWLLTSGTTEANAWKSTLVGHDTFTKVKPSAAS
notes: also called dead streptavidin monomer
Which “stoichiometry N” value [1] does the source give for B1 here?
The value was 3.7 dead streptavidin per Strep-Tactin-SpyCatcherΔ.

Does B1 bind [2]?
Result: binds
